In patent publication US20250145679A1 (WUXI BIOLOGICS IRELAND, published 2025):

Assays:
[1] = biological target: T1, human lymphoma (HH) cell line (human); assay: binding to HH cells, dose-dependent (FIG. 5); receptor on the cells not named
T1 construct: Cells, not a defined protein

[2] = biological target: T2, IL-2/15Rβ (CD122) ECD (human, UniProt P14784 27-239); assay: SPR, Biacore 8K, complex captured on anti-human Fc CM5 chip, receptor ECD-His injected
T2 construct: The SPR text names the analyte only as 'W327151-hPro2.ECD.His'; also called Receptor β; IL-15Rβ
T2 sequence: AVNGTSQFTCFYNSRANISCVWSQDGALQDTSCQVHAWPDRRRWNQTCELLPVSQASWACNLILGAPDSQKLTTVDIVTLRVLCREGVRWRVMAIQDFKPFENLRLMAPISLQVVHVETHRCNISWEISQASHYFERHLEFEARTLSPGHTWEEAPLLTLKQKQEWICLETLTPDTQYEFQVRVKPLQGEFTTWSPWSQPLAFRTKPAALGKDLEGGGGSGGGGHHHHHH
Description: IL-15 variants binding affinity to its receptor were detected by SPR using Biacore 8K. Each variant was captured on anti-human Fc immobilized CM5 sensor chip (cytiva). W327151-hPro2.ECD.His at different concentrations were injected over the sensor chip at a flow rate of 30 uL/min for an association phase of 120 s, followed by 120 s dissociation. The chip was then regenerated by 10 mM Glycine-HCl pH 1.5 after each binding cycle.

B1: W327151-TXU1.P1-V0013.uIgG4V322 (Fc fusion)
chain 1: NWVNVISDLKKIEDLIQSMHIDATLYTESDVHPSCKVTAMKCFLLELQVISLESGDASIHDTVENLIILANNSLSSNGNVTESGCKECEELEEKNIKEFLQSFVHIVQMFESKYGPPCPPCPAPEAAGGPSVFLFPPKPKDTLMISRTPEVTCVVVDVSQEDPEVQFNWYVDGVEVHNAKTKPREEQFNSTYRVVSVLTVLHQDWLNGKEYKCKVSNKGLPSSIEKTISKAKGQPREPQVYTLPPCQEEMTKNQVSLWCLVKGFYPSDIAVEWESNGQPENNYKTTPPVLDSDGSFFLYSRLTVDKSRWQEGNVFSCSVMHEALHNHYTQKSLSLSLGK
chain 2: ITCPPPMSVEHADIWVKSYSLYSRERYICNSGFKRKAGTSSLTECVLNKATNVAHWTTPSLKCIRESKYGPPCPPCPAPEAAGGPSVFLFPPKPKDTLMISRTPEVTCVVVDVSQEDPEVQFNWYVDGVEVHNAKTKPREEQFNSTYRVVSVLTVLHQDWLNGKEYKCKVSNKGLPSSIEKTISKAKGQPREPQVCTLPPSQEEMTKNQVSLSCAVKGFYPSDIAVEWESNGQPENNYKTTPPVLDSDGSFFLVSRLTVDKSRWQEGNVFSCSVMHEALHNHYTQKSLSLSLGK
notes: Heterodimeric IL-15/IL-15Ralpha-Fc polypeptide complex; IgG4 Fc with S228P and F234A/L235A, knob-into-hole
EC50 [1]: 91.9 nM | Kd [2]: 7.9 nM | koff [2]: 0.00483 s⁻¹ | kon [2]: 612000 M⁻¹ s⁻¹
